{
  "source": "paper PMC8373067",
  "about": "“The RGG domain in the C-terminus of the DEAD box helicases Dbp2 and Ded1 is necessary for G-quadruplex destabilization”",
  "key": {"Ded1 WT [1]": {"target": "T1, Ded1 WT (Schizosaccharomyces pombe, UniProt O13370 1-636)", "T1 sequence (O13370 whole entry)": "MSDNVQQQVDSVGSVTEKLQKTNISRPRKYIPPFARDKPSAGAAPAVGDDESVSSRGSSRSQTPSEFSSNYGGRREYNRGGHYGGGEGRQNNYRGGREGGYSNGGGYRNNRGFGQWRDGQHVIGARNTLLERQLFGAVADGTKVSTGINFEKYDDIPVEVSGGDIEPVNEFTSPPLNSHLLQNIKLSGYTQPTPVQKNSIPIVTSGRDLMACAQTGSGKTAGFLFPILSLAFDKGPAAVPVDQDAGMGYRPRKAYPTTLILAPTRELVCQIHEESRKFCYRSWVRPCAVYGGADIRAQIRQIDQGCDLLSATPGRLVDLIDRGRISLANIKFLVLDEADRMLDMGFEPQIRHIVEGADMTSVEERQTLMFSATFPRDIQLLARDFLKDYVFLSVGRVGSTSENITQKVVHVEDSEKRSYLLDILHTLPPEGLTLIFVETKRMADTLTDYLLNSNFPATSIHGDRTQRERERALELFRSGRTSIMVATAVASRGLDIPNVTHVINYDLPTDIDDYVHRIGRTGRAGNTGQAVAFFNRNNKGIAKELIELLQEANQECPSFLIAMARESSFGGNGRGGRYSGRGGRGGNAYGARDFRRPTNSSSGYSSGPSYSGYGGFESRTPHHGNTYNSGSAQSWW", "test": "EMSA; K+, 2 mM Mg2+; EMSA: 0.4 nM 32P-oligo (0.2 nM in Fig S4), 50 mM Tris (pH not stated), 50 mM KCl (DNA) or NaCl (RNA), 2 mM MgCl2, 2 mM DTT, 0.25 mg/ml BSA, 10 min at 30 C", "conditions": "protein: recombinant; tags: C-terminal poly-His; label: 5'-32P; parallel G4, 5' A10 overhang"}, "Dbp2 WT [2]": {"target": "T2, Dbp2 WT (Schizosaccharomyces pombe, UniProt P24782 1-550)", "T2 sequence (P24782 whole entry)": "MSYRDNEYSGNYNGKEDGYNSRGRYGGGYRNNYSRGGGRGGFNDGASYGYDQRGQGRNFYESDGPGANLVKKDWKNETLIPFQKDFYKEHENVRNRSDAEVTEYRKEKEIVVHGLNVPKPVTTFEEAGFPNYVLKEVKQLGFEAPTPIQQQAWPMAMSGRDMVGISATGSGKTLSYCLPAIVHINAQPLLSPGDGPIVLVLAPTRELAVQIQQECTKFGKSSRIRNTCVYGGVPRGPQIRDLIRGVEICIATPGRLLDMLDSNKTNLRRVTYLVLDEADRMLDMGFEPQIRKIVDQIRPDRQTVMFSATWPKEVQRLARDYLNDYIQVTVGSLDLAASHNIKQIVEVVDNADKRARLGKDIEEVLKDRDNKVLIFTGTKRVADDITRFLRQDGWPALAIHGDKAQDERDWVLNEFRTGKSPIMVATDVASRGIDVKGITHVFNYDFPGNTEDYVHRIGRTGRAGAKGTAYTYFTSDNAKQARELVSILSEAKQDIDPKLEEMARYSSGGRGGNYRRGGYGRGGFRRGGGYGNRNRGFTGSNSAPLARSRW", "test": "EMSA; K+, 2 mM Mg2+; EMSA: 0.4 nM 32P-oligo (0.2 nM in Fig S4), 50 mM Tris (pH not stated), 50 mM KCl (DNA) or NaCl (RNA), 2 mM MgCl2, 2 mM DTT, 0.25 mg/ml BSA, 10 min at 30 C", "conditions": "protein: recombinant; tags: C-terminal poly-His; label: 5'-32P; parallel G4, 5' A10 overhang"}, "Ded1 WT [3]": {"target": "T1, Ded1 WT", "test": "EMSA; up to 10 nM protein; EMSA: 0.4 nM 32P-oligo (0.2 nM in Fig S4), 50 mM Tris (pH not stated), 50 mM KCl (DNA) or NaCl (RNA), 2 mM MgCl2, 2 mM DTT, 0.25 mg/ml BSA, 10 min at 30 C", "conditions": "protein: recombinant; tags: C-terminal poly-His; label: 5'-32P; single strand"}, "Oga1 WT [4]": {"target": "T3, Oga1 WT (Schizosaccharomyces pombe, UniProt O42914 1-284)", "T3 sequence": "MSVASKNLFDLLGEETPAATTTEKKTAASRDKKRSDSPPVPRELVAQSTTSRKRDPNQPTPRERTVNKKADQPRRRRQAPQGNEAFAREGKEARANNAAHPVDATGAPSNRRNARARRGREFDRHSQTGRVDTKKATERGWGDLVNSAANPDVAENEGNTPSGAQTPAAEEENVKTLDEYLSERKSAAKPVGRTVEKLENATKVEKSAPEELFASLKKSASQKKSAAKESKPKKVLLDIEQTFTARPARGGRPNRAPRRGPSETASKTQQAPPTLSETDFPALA", "test": "EMSA; up to 10 nM protein; EMSA: 0.4 nM 32P-oligo (0.2 nM in Fig S4), 50 mM Tris (pH not stated), 50 mM KCl (DNA) or NaCl (RNA), 2 mM MgCl2, 2 mM DTT, 0.25 mg/ml BSA, 10 min at 30 C", "conditions": "protein: recombinant; tags: C-terminal poly-His; label: 5'-32P; single strand"}, "Dbp2 WT [5]": {"target": "T2, Dbp2 WT", "test": "EMSA; up to 10 nM protein; EMSA: 0.4 nM 32P-oligo (0.2 nM in Fig S4), 50 mM Tris (pH not stated), 50 mM KCl (DNA) or NaCl (RNA), 2 mM MgCl2, 2 mM DTT, 0.25 mg/ml BSA, 10 min at 30 C", "conditions": "protein: recombinant; tags: C-terminal poly-His; label: 5'-32P; single strand"}, "Ded1 WT [6]": {"target": "T1, Ded1 WT", "test": "EMSA; 10 nM protein, Na+; EMSA: 0.4 nM 32P-oligo (0.2 nM in Fig S4), 50 mM Tris (pH not stated), 50 mM KCl (DNA) or NaCl (RNA), 2 mM MgCl2, 2 mM DTT, 0.25 mg/ml BSA, 10 min at 30 C", "conditions": "protein: recombinant, tags: C-terminal poly-His, label: 5'-32P"}, "Oga1 WT [7]": {"target": "T3, Oga1 WT", "test": "EMSA; 10 nM protein, Na+; EMSA: 0.4 nM 32P-oligo (0.2 nM in Fig S4), 50 mM Tris (pH not stated), 50 mM KCl (DNA) or NaCl (RNA), 2 mM MgCl2, 2 mM DTT, 0.25 mg/ml BSA, 10 min at 30 C", "conditions": "protein: recombinant, tags: C-terminal poly-His, label: 5'-32P"}, "Dbp2 WT [8]": {"target": "T2, Dbp2 WT", "test": "EMSA; 10 nM protein, Na+; EMSA: 0.4 nM 32P-oligo (0.2 nM in Fig S4), 50 mM Tris (pH not stated), 50 mM KCl (DNA) or NaCl (RNA), 2 mM MgCl2, 2 mM DTT, 0.25 mg/ml BSA, 10 min at 30 C", "conditions": "protein: recombinant, tags: C-terminal poly-His, label: 5'-32P"}, "[9]": {"conditions": "parallel G4, 5' U5 and 3' U5 overhangs"}},
  "data": [
    {"binder": "AAAAAAAAAAGGGGAAGGGTGGGGCATGTTATGGG (structured_DNA)", "note": "[10A-rDNA G4]", "values": [
      {"measurement": "Kd", "setting": "Ded1 WT [1]", "value": "6.59 ± 0.1", "unit": "nM"},
      {"measurement": "Kd", "setting": "Dbp2 WT [2]", "value": "3.84 ± 1.06", "unit": "nM"}
    ]},
    {"binder": "AAAAAAAAAAGGTGCGAGGTGAGTGTGGAGTGAGG (ssDNA)", "note": "[10A-rDNA scr]", "values": [
      {"measurement": "binding result", "setting": "Ded1 WT [3]", "value": "no binding"},
      {"measurement": "binding result", "setting": "Oga1 WT [4]", "value": "no binding"},
      {"measurement": "binding result", "setting": "Dbp2 WT [5]", "value": "no binding"}
    ]},
    {"binder": "AAAAAAAAAAGGGGAAGGGUGGGGCAUGUUAUGGG (structured_RNA)", "note": "[5'-RNA-G4 (10A-G4 RNA)]", "values": [
      {"measurement": "binding result", "setting": "Ded1 WT [6]", "value": "binds"},
      {"measurement": "binding result", "setting": "Oga1 WT [7]", "value": "binds"},
      {"measurement": "binding result", "setting": "Dbp2 WT [8]", "value": "binds"}
    ]},
    {"binder": "UUUUUGGGGAAGGGUGGGGCAUGUUAUGGGUUUUU (structured_RNA)", "note": "[5'-RNA-G4-3' (5U-G4-5U RNA)]", "values": [
      {"measurement": "binding result", "setting": "Ded1 WT [6]; [9]", "value": "binds"},
      {"measurement": "binding result", "setting": "Oga1 WT [7]; [9]", "value": "binds"},
      {"measurement": "binding result", "setting": "Dbp2 WT [8]; [9]", "value": "binds"}
    ]}
  ]
}
